The values that follow come from patent US7041498 (SALK INSTITUTE FOR BIOLOGICAL STUDIES, dated 2006).

The assay has as its target T1, GAL4 linked to the FAR ligand binding domain (GAL4-FAR184-469) (yeast; rat, UniProt P04386 1-147).
T1 construct: range 1-147; Two-hybrid bait expressed in CV-1 cells from a CMV promoter vector; also called GAL4-FAR chimera; FAR LBD
The assay can be described thus: mammalian two-hybrid in CV-1 cells, GAL4 UAS luciferase reporter.

B1: VP16 transactivation domain linked to the LBD of RARα (VP-RAR156-462) (other)
chain: ESVRNDRNKKKKEVPKPECSESYTLTPEVGELIEKVRKAHQETFPALCQLGKYTTNNSSEQRVSLDIDLWDKFSELSTKCIIKTVEFAKQLPGFTTLTIADQITLLKAACLDILILRICTRYTPEQDTMTFSDGLTLNRTQMHNAGFGPLTDLVFAFANQLLPLEMDDAETGLLSAICLICGDRQDLEQPDRVDMLQEPLLEALKVYVRKRRPSRPHMFPKMLMKITDLRSISAKGAERVITLKMEIPGSMPPLIQEMLENSEGLDTLSGQPGGGGRDGGGLAPPPGSCSPSLSPSSNRSSPATHSP
notes: range 156-462
Consider B1, for which the binding result was “no binding”.

B2: VP16 transactivation domain linked to the LBD of VDR (VP-VDR92-427) (other)
chain: EFILTDEEVQRKREMILKRKEEEALKDSLRPKLSEEQQRIIAILLDAHHKTYDPTYSDFCQFRPPVRVNDGGGSHPSRPNSRHTPSFSGDSSSSCSDHCITSSDMMDSSSFSNLDLSEEDSDDPSVTLELSQLSMLPHLADLVSYSIQKVIGFAKMIPGFRDLTSEDQIVLLKSSAIEVIMLRSNESFTMDDMSWTCGNQDYKYRVSDVTKAGHSLELIEPLIKFQVGLKKLNLHEEEHVLLMAICIVSPDRPGVQDAALIEAIQDRLSNTLQTYIRCRHPPPGSHLLYAKMIQKLADLRSLNEEHSKQYRCLSFQPECSMKLTPLVLEVFGNEIS
notes: range 92-427
In the case of B2, the binding result was “no binding”.

B3: VP16 transactivation domain linked to the LBD of mouse PPARα (VP-PPAR155-468) (other)
chain: YCRFHKCLSVGMSHNAIRFGRMPRSEKAKLKAEILTCEHDLKDSETADLKSLGKRIHEAYLKNFNMNKVKARVILAGKTSNNPPFVIHDMETLCMAEKTLVAKMVANGVEDKEAEVRFFHCCQCMSVETVTELTEFAKAIPGFANLDLNDQVTLLKYGVYEAIFTMLSSLMNKDGMLIAYGNGFITREFLKNLRKPFCDIMEPKFDFAMKFNALELDDSDISLFVAAIICCGDRPGLLNIGYIEKLQEGIVHVLKLHLQSNHPDDTFLFPKLLQKMVDLRQLVTEHAQLVQVIKKTESDAALHPLLQEIYRDMY
notes: range 155-468; Two-hybrid prey expressed in CV-1 cells
With B3, the binding result is “no binding”.
